Results reported in article PMC3377666.

Target: recombinant human Pol δ core+p68 trimer (p125/p50/p68) (human) (UniProt P28340)
Sequence (P28340 whole entry, stated change not applied, chain 1 of 3): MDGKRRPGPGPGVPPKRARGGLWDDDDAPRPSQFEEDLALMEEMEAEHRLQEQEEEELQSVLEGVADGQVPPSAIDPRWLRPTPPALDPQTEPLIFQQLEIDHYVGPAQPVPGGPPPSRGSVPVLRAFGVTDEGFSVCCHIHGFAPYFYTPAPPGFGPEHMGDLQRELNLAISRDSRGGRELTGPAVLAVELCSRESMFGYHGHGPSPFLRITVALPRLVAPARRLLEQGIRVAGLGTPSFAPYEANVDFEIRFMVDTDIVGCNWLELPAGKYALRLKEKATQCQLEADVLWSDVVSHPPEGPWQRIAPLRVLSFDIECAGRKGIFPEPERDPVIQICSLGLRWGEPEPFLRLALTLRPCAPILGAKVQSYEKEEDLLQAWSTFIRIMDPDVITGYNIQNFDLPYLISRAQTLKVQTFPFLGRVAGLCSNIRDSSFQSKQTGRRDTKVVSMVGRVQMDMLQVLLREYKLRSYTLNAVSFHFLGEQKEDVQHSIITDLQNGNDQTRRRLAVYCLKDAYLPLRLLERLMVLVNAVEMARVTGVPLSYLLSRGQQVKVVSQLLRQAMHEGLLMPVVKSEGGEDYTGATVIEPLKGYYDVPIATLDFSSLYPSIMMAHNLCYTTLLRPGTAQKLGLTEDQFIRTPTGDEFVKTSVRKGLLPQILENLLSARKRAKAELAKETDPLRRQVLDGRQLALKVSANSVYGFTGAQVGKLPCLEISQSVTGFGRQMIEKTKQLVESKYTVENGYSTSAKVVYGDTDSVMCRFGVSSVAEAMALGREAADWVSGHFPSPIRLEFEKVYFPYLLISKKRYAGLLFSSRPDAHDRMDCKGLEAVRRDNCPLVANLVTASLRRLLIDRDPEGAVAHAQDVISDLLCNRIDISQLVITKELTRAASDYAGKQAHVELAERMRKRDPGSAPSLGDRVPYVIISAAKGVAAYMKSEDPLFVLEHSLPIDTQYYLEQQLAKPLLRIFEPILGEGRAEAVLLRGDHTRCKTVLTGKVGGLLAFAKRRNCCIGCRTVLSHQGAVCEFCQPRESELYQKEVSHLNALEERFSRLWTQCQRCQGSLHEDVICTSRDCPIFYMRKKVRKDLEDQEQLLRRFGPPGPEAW
Sequence (P49005 whole entry, stated change not applied, chain 2 of 3, further chain): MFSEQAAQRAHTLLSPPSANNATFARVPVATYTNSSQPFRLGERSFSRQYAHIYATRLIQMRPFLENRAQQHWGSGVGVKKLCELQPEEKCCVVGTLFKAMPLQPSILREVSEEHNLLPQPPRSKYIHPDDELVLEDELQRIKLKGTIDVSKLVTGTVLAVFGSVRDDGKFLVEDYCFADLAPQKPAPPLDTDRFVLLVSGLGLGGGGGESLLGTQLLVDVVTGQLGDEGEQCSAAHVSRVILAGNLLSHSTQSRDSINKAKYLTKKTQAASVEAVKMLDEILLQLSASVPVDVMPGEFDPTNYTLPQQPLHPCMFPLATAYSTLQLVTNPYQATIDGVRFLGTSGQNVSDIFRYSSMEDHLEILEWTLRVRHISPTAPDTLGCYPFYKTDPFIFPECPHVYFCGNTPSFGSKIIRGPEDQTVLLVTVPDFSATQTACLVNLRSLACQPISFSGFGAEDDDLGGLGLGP
Sequence (Q15054 whole entry, stated change not applied, chain 3 of 3, further chain): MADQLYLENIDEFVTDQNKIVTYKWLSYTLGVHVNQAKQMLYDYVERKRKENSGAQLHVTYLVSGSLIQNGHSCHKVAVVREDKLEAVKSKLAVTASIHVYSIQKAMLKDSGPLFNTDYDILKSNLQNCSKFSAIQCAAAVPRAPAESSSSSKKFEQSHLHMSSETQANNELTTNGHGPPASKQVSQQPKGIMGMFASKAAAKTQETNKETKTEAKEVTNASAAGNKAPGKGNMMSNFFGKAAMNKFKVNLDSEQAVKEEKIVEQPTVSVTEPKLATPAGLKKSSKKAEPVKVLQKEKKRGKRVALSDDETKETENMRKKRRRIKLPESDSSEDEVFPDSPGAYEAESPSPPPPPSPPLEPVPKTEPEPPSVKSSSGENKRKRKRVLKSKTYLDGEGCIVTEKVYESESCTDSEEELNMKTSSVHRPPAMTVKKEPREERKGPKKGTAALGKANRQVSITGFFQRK

- restoration of Pol δ activity on poly(dA)/oligo(dT) with PCNA, core+p68 (200 fmoles) pre-incubated with 0-400 ng p12 at 4°C for 30 min, against Pol δ4: 80%
- restoration of Pol δ activity on singly primed M13 DNA, core+p68 (50 fmoles) pre-incubated with 0-400 ng p12, against Pol δ4: 96%
B1: non-tagged recombinant p12 (natural protein)
chain: MGRKRLITDSYPVVKRREGPAGHSKGELAPELGEEPQPRDEEEAELELLRQFDLAWQYGPCTGITRLQRWCRAKQMGLEPPPEVWQVLKTHPGDPRFQCSLWHLYPL
